From patent publication US20150376265A1 (Genentech, published 2015)
Numbering of substitutions follows the chain as printed. Names may count otherwise. “And” between values parts separate entries of the source, which are not always exact repeats. Identical values can stand only once. Like-named read-outs stand apart in the source and are kept apart here.

Experiments:
[1] = molecular target: T1, HCMV gH on virions of strain VR1814 (HCMV, UniProt P12824 24-743); assay: cell-based or functional assay
T1 sequence: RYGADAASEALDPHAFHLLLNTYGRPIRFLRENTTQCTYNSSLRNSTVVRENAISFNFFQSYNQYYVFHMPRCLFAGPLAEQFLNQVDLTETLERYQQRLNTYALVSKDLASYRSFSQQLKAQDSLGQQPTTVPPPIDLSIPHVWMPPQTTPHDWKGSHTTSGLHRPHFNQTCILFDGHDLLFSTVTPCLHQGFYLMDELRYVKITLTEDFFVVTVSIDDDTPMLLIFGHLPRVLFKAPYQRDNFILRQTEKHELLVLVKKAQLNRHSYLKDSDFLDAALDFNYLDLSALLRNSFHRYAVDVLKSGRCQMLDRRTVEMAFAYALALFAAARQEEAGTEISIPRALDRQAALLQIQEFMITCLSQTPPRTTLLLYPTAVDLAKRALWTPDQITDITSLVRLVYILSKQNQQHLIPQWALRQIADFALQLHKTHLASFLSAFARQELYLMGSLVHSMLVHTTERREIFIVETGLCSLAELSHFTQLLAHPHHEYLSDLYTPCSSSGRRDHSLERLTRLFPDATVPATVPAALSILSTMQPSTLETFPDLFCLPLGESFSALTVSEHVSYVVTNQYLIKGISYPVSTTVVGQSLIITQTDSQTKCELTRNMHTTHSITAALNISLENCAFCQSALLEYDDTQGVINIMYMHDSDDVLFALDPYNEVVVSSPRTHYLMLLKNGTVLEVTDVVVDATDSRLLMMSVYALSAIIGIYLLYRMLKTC

[2] = molecular target: T1, HCMV gH on virions of strain VR1814; assay: cell-based or functional assay; remark: listed apart in the source
[3] = molecular target: T1, HCMV gH on virions of strain VR1814; assay: cell-based or functional assay; remark: listed apart in the source
[4] = molecular target: T2, soluble baculovirus-expressed gH/gL (HCMV, UniProt P12824 24-720; P16832 31-278); assay: competition phage ELISA: phage-displayed Fab with serially diluted soluble gH/gL, free phage caught on coated gH/gL
T2 construct: also called gH/gL dimer produced in baculovirus; baculovirus expressed, secreted gH/gL
T2 sequence 1: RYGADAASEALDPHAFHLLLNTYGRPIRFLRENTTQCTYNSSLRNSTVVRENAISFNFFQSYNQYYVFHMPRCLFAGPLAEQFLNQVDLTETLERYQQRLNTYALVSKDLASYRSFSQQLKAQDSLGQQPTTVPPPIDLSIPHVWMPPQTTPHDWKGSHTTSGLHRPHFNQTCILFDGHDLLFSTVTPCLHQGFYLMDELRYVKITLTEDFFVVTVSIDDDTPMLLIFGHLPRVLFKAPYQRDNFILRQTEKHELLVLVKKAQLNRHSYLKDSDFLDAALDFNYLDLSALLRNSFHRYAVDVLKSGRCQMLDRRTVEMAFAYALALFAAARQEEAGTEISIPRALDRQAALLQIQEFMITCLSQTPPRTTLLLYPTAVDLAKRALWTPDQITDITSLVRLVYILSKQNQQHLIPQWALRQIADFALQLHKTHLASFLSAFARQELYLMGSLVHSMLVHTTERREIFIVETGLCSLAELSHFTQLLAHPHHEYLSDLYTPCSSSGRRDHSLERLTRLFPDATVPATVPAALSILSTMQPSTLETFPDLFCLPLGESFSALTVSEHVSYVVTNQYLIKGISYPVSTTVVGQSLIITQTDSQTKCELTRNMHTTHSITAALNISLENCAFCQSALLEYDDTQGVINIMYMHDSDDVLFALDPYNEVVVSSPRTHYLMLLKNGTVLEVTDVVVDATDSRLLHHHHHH
T2 sequence 2: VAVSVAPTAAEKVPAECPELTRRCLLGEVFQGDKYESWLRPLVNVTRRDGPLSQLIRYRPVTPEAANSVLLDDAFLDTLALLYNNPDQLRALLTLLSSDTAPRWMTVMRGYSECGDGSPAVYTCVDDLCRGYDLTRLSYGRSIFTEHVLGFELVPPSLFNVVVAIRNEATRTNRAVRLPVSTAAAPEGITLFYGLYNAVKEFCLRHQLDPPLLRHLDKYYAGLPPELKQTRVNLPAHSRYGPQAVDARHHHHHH

[5] = molecular target: T1, HCMV gH on virions of strain VR1814; assay: cell-based or functional assay; remark: listed apart in the source
[6] = molecular target: T1, HCMV gH on virions of strain VR1814; assay: cell-based or functional assay; remark: listed apart in the source
[7] = molecular target: T1, HCMV gH on virions of strain VR1814; assay: cell-based or functional assay; remark: listed apart in the source
[8] = molecular target: T1, HCMV gH on virions of strain VR1814; assay: cell-based or functional assay; remark: listed apart in the source

B1: MSL-109 (antibody, V domains shown)
VH: EEQVLESGGGLVKPGGSLRLSCAASGFTFSPYSVFWVRQAPGKGLEWVSSINSDSTYKYYADSVKGRFTISRDNAENSIFLQMNSLRAEDTAVYYCARDRSYYAFSSGSLSDYYYGLDVWGQGTLVTVSS
VL: DIVMTQSPLSLSVTPGEPASISCRSSQSLLHTNGYNYLDWYVQKPGQSPQLLIYLASNRASGVPDRFSGSGSGTDFTLKISRVETEDVGVYYCMQALQIPRTFGQGTKVEIK
[1]
  Epithelial EC50 (first pair of columns), neutralisation: 0.3 µg/mL
  Epithelial EC50 (second pair of columns), neutralisation: 0.48 µg/mL
  Fibroblast EC50, neutralisation: 0.73 µg/mL
  MDM EC50, neutralisation: 0.04 µg/mL
[2]
  EC50, neutralisation of HCMV strain VR1814 on endothelial cells: 0.0764 µg/mL
  EC50, neutralisation of HCMV strain VR1814 on epithelial cells: 0.164 µg/mL
  EC50, neutralisation of HCMV strain VR1814 on fibroblasts: 0.389 µg/mL

B2: MSL-109 Fab fragment (WT) (Fab, V domains shown)
VH: B1 VH
VL: B1 VL
[3]
  EC50, inhibition of HCMV entry into ARPE-19 cells, Fab fragments from E. coli: 6.2 nM

B3: MSL-109 Fab variant H2-D53S/T55R (Fab, name in Kabat numbering, V domains shown)
VH: B1 VH with D54S, T56R
VL: B1 VL
[4]
  IC50: 0.03 nM

B4: MSL-109 Fab variant H2-D53M (Fab, name in Kabat numbering, V domains shown)
VH: B1 VH with D54M
VL: B1 VL
[4]
  IC50: 0.05 nM

B5: MSL-109 Fab variant H2-D53L/T55R (Fab, name in Kabat numbering, V domains shown)
VH: B1 VH with D54L, T56R
VL: B1 VL
[4]
  IC50: 0.02 nM

B6: HB1 (D53N/T55R) (antibody, V domains shown)
VH: B1 VH with D54N, T56R
VL: B1 VL
[1]
  Epithelial EC50 (first pair of columns), neutralisation: 0.05 µg/mL
  Epithelial EC50 (second pair of columns), neutralisation: 0.03 µg/mL
  Fibroblast EC50, neutralisation: 0.11 µg/mL
  MDM EC50, neutralisation: 0.03 µg/mL
[3]
  EC50, block of viral entry into fibroblasts: 0.11 µg/ml and 0.7 nM
[5]
  EC50 of HB1 in the presence of hu8G8 at .000128 µg/ml: 0.041 µg/mL
  EC50 of HB1 in the presence of hu8G8 at .00064 µg/ml: 0.043 µg/mL
  EC50 of HB1 in the presence of hu8G8 at .0032 µg/ml: 0.035 µg/mL
  EC50 of HB1 with hu8G8 at 0 µg/ml: 0.03 µg/mL
[6]
  EC50 on epithelial cells, HB1 alone: 0.063 µl/ml
[7]
  HB1 EC50, neutralisation of the No Ab control virus: 0.04 µg/mL
[8]
  HB1 EC50, neutralisation of hu8G8 - mutant virus 1 (UL131 Q47K, gH unchanged): 0.18 µg/mL
  HB1 EC50, neutralisation of hu8G8 - mutant virus 2 (UL131 K51E, gH unchanged): 0.07 µg/mL
  HB1 EC50, neutralisation of hu8G8 - mutant virus 3 (UL131 D46N, gH unchanged): 0.06 µg/mL
  HB1 EC50, neutralisation of the No Ab control virus: 0.22 µg/mL

B7: MSL-109 Fab variant H2-D53S (Fab, name in Kabat numbering, V domains shown)
VH: B1 VH with D54S
VL: B1 VL
[4]
  IC50: 0.1 nM

B8: HB2 Fab fragment, H2-D53Q/T55R (HB2) (Fab, name in Kabat numbering, V domains shown)
VH: B1 VH with D54Q, T56R
VL: B1 VL
[4]
  IC50: 0.01 nM

B9: MSL-109 Fab variant H2-T55R (Fab, name in Kabat numbering, V domains shown)
VH: B1 VH with T56R
VL: B1 VL
[4]
  IC50: 0.17 nM

B10: MSL-109 Fab variant H2-D53M/T55R (Fab, name in Kabat numbering, V domains shown)
VH: B1 VH with D54M, T56R
VL: B1 VL
[4]
  IC50: 0.07 nM

B11: MSL-109 Fab variant H2-D53T (Fab, name in Kabat numbering, V domains shown)
VH: B1 VH with D54T
VL: B1 VL
[4]
  IC50: 0.06 nM

B12: MSL-109 Fab variant H2-D53L (Fab, name in Kabat numbering, V domains shown)
VH: B1 VH with D54L
VL: B1 VL
[4]
  IC50: 0.02 nM

B13: MSL-109 Fab variant H2-D53N (Fab, name in Kabat numbering, V domains shown)
VH: B1 VH with D54N
VL: B1 VL
[4]
  IC50: 0.06 nM

B14: MSL-109 Fab variant H2-D53T/T55R (Fab, name in Kabat numbering, V domains shown)
VH: B1 VH with D54T, T56R
VL: B1 VL
[4]
  IC50: 0.03 nM

B15: MSL-109 Fab variant H2-D53F/T55R (Fab, name in Kabat numbering, V domains shown)
VH: B1 VH with D54F, T56R
VL: B1 VL
[4]
  IC50: 0.01 nM

B16: HB1 Fab fragment, H2-D53N/T55R (HB1) (Fab, V domains shown)
VH: B1 VH with D54N, T56R
VL: B1 VL
[3]
  EC50, inhibition of HCMV entry into ARPE-19 cells, Fab fragments from E. coli: 0.15 nM
